Columns and labels:
[1] = biological target: T1, human HHLA2-mIgG2a fusion protein (human; mouse, UniProt Q9UM44 23-344, limits assumed); assay: cell microarray, HHLA2-mIgG2a on fixed transfected HEK293 cells, AF647 anti-mouse IgG detection
T1 construct: also called hHHLA2-mIgG2a; HHLA2-Fc
T1 sequence: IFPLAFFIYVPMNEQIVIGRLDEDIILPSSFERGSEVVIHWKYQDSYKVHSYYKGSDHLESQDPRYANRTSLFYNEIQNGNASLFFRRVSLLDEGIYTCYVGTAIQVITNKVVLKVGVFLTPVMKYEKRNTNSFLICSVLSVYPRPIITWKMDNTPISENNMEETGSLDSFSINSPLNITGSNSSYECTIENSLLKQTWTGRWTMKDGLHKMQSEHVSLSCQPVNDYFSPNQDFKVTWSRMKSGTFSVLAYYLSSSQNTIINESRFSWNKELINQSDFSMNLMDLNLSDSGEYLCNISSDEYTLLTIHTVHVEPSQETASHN
Protocol: Human HHLA2-mIgG2a fusion protein was added to slides of fixed, transfected HEK293 cell slides at a 20 ug/ml concentration, and the protein was detected with an AF647 labeled anti-mouse IgG detection antibody. Two replicate slides were screened for each of the 13 slide sets. Fluorescent images were analyzed and quantitated (for transfection efficiency) using ImageQuant software (GE). A protein ‘hit’ was defined as duplicate spots showing a raised signal compared to background levels. This was achieved by visual inspection using the images gridded on the ImageQuant software.
Addition of the AF647 labeled anti-mouse IgG detection antibody alone in the absence of HHLA2-mIgG2a produced no signal. The selectivity of HHLA2 binding to KIR3DL3 was evaluated using a panel of 14 KIR receptors arrayed on slides.

[2] = biological target: T2, human HHLA2 expressed on transfected cells (300.19 mouse pre-B cells; CHO cells) (human, UniProt Q9UM44 23-414); assay: flow cytometry, mAb titrated on HHLA2-transfected 300.19 pre-B cells, PE goat anti-mouse IgG
T2 construct: also called B7-H7; B7H7
T2 sequence: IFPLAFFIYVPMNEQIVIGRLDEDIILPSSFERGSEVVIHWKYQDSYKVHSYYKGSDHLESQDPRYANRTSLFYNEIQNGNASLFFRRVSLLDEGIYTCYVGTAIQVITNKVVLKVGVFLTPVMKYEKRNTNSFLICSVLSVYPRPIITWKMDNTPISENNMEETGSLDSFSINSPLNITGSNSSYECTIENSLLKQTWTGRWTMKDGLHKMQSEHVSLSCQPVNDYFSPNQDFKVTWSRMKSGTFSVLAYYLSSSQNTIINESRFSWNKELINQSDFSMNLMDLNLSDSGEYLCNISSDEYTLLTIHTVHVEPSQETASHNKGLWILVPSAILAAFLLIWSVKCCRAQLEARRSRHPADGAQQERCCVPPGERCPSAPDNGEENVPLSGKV
Protocol: (§1) HHLA2 mAb cell binding and receptor blockade experiments were then performed. […] HHLA2 mAb binding to transfected 300.19 cells was detected with PE-labeled goat anti-mouse IgG (H+L). For HHLA2 mAb blocking experiments different concentration of HHLA2 mAbs were pre-incubated with 4 ug/ml of HHLA2-mIgG2a at a 1:1 ratio for 30 minutes and added to either TMIGD2 or KIR3DL3 transfected 293T cells and incubated for 30 minutes at 4° C. HHLA2-mIgG2a binding to TMIGD2 or KIR3DL3 transfected 293T cells was detected with a PE labeled Fab2 goat anti-mIgG2a antibody. EC50 and IC50 analyses were conducted using Graph Pad Prism. It was shown that HHLA2 mAb clone 2C4 has desired properties of complete KIR3DL3 blockade and partial TMIGD2 blockade (Table 6).

[3] = biological target: T1, human HHLA2-mIgG2a fusion protein; assay: flow cytometry, mAb pre-incubated with 4 ug/ml HHLA2-mIgG2a; blockade of its binding to KIR3DL3-transfected 293T cells
Protocol: as §1

[4] = biological target: T1, human HHLA2-mIgG2a fusion protein; assay: flow cytometry, mAb pre-incubated with 4 ug/ml HHLA2-mIgG2a; blockade of its binding to TMIGD2-transfected 293T cells
Protocol: as §1

[5] = biological target: T2, human HHLA2 expressed on transfected …; assay: flow cytometry, mAb on HHLA2-transfected 300.19 mouse pre-B cells

Binder	binding result [1]	EC50 [2]	IC50 [3]	IC50 [4]	EC50 [5]
KIR2DS5 (receptor, human, UniProt Q14953 22-304, looked up, whole, on cells) HEGFRRKPSLLAHPGPLVKSEETVILQCWSDVMFEHFLLHREGTFNHTLRLIGEHIDGVSKGNFSIGRMTQDLAGTYRCYGSVTHSPYQLSAPSDPLDIVITGLYEKPSLSAQPGPTVLAGESVTLSCSSRSSYDMYHLSREGEAHERRLPAGPKVNRTFQADFPLDPATHGGTYRCFGSFRDSPYEWSKSSDPLLVSVTGNSSNSWPSPTEPSSETGNPRHLHVLIGTSVVKLPFTILLFFLLHRWCSNKKNASVMDQGPAGNRTVNREDSDEQDHQEVSYA	no binding (tested: 20 ug/ml)				
anti-HHLA2 monoclonal antibody 4D1 (antibody, IgG1, V domains shown, also called 499.5.4D1.5.16; MHC2563) VH: QVQLQQSGAELVRPGVSVKISCKGSGYTFTDYAMHWVKQSHAKSLEWIGSISTYYGDTNYNQKFKGKATMTVDKSSSTAYMELARLTSEDSAIYYCARGNYDDWYFNVWGAGTTVTVSS VL: DIQMTQSPSSLSASLGERVSLTCRASQDISGYLSWLQQKPDGTIKRLIYSTSTLDSGVPKRFSGSRSGSDYSLTISSLESEDFADYYCLQYASSPYTFGGGAKLEIK		0.44 mg/L	0.68 mg/L	0.56 mg/L	0.44 mg/L
anti-HHLA2 monoclonal antibody 2G2 (antibody, IgG1, V domains shown, also called 499.5.2G2.13.3.10; MHC2561) VH: EVMLVESGGGLVKPGGSLKLSCAVSGLTFSSYAMSWVRQTPEKRLEWVATISSGGSHTYYPDSVKGRFIISRDNAKNTLYLQMNSLRSEDTAMYYCTRLGRAFDYWGQGTTLTVSS VL: DIVMTQSHKFMSTSVGDRVSITCKASQDVSTAVAWYQQKPGQSPKVLIYWASTRHTGVPDRFTGSGSGTDFTLTISSVQAEDLALYYCQQDYSTPWTFGGGTKLEIK		0.21 mg/L	0.53 mg/L	0.85 mg/L	0.21 mg/L
KIR2DL3 (receptor, human, UniProt P43628 22-341, looked up, whole, on cells) HEGVHRKPSLLAHPGPLVKSEETVILQCWSDVRFQHFLLHREGKFKDTLHLIGEHHDGVSKANFSIGPMMQDLAGTYRCYGSVTHSPYQLSAPSDPLDIVITGLYEKPSLSAQPGPTVLAGESVTLSCSSRSSYDMYHLSREGEAHERRFSAGPKVNGTFQADFPLGPATHGGTYRCFGSFRDSPYEWSNSSDPLLVSVTGNPSNSWPSPTEPSSETGNPRHLHVLIGTSVVIILFILLLFFLLHRWCCNKKNAVVMDQEPAGNRTVNREDSDEQDPQEVTYAQLNHCVFTQRKITRPSQRPKTPPTDIIVYTELPNAEP	no binding (tested: 20 ug/ml)				
anti-HHLA2 monoclonal antibody 1C8 (antibody, IgG2a, V domains shown, also called 499.5.1C8.9.12.2; MHC2564) VH: EVQLQQSGAELVQPGASVKLSCTASGFNIKDTYMHWVKQRPEQGLEWIGRIDPANGKTIFDPKFQVKATITADTSSNTVYLHLSSLTSEDTAIYYCAWLLPYYFDYWGQGTTLTVSS VL: EIVLTQSPAVMAASPGEKVTITCSVSSSISSSNLHWYQQKSGTSPKLWIYGTSNLASGVPVRFSGSGSGTSYSLTISSMEAEDAATYYCQKWSHYPLTFGAGTKLELK		0.63 mg/L	1.15 mg/L	1.65 mg/L	0.63 mg/L
KIR2DS1 (receptor, human, UniProt Q14954 22-304, looked up, whole, on cells) HEGVHRKPSLLAHPGRLVKSEETVILQCWSDVMFEHFLLHREGMFNDTLRLIGEHHDGVSKANFSISRMKQDLAGTYRCYGSVTHSPYQLSAPSDPLDIVIIGLYEKPSLSAQPGPTVLAGENVTLSCSSRSSYDMYHLSREGEAHERRLPAGTKVNGTFQANFPLGPATHGGTYRCFGSFRDSPYEWSKSSDPLLVSVTGNPSNSWPSPTEPSSETGNPRHLHVLIGTSVVKIPFTILLFFLLHRWCSDKKNAAVMDQEPAGNRTVNSEDSDEQDHQEVSYA	no binding (tested: 20 ug/ml)				
anti-HHLA2 monoclonal antibody 6D10 (antibody, IgG1, V domains shown, also called 6DI0; 499.5.6D10.11.11.7) VH: EVQLVETGGGLVQPKGSLKLSCAASGFTFNTNVMNWVRQAPGKGLEWVARIRTKTNNYATYYADSVKDRFTIFRDDSQSILYLQMNNLKTEDTAMYYCVGAMDYWGQGTSVTVSS VL: DIVLTQSPASLAVSLGQRATISCRASESVDNYGISFMHWYQQKPGQPPKLLIYRASNLKSGIPARFSGSGSRTDFTLTINPVETGDVATYYCQQSSKDPPTFGTGTKLELK		22.5 mg/L	7 mg/L	11.7 mg/L	22.5 mg/L

— patent publication US20210115144A1 (Dana-Farber, published 2021)
